Results reported in patent publication US20260098080A1, “A MODIFIED PROTEIN SCAFFOLD AND USE THEREOF” (EVOLVERITAS BIOTECHNOLÓGIAI KORLÁTOLT FELELOSSÉGU TÁRSASÁG, priority 2022, published 2026).
Changes are numbered by the printed parent chain. Where no end group is shown, it is not given here.

Legend:
[1] = target: T1, human MASP-2cf CCP1-CCP2-SP (human, UniProt O00187 298-686, limits assumed); experiment: enzyme inhibition, tight-binding fit
T1 construct: domain: CCP1-CCP2-SP; also called human MASP-2 catalytic fragment

[2] = target: T2, rat MASP-2cf CCP1-CCP2-SP (rat, UniProt Q9JJS8 298-685); experiment: enzyme inhibition, tight-binding fit
T2 construct: range 298-685; Mw 42309 Da; also called rat MASP-2 catalytic fragment

[3] = target: rat MASP-2 (in rat serum) (rat, UniProt Q9JJS8 20-685); experiment: cell-based or functional assay
[4] = target: T3, human MASP-2 (in normal human serum) (human, UniProt O00187 16-686); experiment: cell-based or functional assay
[5] = target: T1, human MASP-2cf CCP1-CCP2-SP; experiment: SPR, target immobilised
[6] = target: T2, rat MASP-2cf CCP1-CCP2-SP; experiment: SPR, target immobilised
[7] = target: T3, human MASP-2 (in normal human serum); experiment: cell-based or functional assay; remark: listed apart in the source

T1 sequence (O00187 298-686 limits assumed): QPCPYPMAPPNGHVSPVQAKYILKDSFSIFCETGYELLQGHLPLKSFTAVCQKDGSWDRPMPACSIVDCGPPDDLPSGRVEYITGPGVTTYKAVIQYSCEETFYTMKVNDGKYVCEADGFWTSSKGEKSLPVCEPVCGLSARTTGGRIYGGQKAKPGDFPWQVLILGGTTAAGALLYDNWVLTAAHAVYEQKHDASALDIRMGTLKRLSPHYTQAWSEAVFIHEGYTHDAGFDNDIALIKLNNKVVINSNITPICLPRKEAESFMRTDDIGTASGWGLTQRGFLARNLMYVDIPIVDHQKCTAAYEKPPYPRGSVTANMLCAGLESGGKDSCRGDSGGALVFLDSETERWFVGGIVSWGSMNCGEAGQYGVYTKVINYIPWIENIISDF
T2 sequence (Q9JJS8 other isoform, or with tags, fused parts or gaps limits assumed, form in doubt): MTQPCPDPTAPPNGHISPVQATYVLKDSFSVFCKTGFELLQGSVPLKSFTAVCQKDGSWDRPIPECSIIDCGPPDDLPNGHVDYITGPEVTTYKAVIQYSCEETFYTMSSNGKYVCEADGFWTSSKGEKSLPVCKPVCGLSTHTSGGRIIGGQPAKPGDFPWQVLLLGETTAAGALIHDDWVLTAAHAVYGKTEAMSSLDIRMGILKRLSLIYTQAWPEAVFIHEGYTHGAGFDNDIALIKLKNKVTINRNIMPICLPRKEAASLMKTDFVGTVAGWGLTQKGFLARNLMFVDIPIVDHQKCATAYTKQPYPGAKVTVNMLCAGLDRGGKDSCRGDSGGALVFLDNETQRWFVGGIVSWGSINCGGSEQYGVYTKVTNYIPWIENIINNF
T3 sequence (O00187 16-686 limits assumed): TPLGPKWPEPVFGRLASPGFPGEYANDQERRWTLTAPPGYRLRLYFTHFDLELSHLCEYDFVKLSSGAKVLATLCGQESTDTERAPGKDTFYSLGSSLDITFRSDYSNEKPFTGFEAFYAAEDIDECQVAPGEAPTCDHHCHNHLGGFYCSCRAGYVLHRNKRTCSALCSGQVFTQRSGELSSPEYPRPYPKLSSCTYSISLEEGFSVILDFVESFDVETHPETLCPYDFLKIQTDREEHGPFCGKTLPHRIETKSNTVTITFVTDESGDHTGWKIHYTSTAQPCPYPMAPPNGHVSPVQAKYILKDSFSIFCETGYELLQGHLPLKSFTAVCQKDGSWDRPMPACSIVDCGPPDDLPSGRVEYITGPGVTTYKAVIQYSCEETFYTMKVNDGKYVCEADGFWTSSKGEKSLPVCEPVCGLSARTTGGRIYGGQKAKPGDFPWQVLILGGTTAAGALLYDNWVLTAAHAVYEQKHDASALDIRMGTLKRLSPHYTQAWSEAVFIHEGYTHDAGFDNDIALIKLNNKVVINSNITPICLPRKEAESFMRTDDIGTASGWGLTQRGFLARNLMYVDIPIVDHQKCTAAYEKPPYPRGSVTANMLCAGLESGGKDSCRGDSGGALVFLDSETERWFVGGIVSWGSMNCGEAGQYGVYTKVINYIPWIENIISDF
Chain of rat MASP-2 (in rat serum) (Q9JJS8 20-685 limits assumed): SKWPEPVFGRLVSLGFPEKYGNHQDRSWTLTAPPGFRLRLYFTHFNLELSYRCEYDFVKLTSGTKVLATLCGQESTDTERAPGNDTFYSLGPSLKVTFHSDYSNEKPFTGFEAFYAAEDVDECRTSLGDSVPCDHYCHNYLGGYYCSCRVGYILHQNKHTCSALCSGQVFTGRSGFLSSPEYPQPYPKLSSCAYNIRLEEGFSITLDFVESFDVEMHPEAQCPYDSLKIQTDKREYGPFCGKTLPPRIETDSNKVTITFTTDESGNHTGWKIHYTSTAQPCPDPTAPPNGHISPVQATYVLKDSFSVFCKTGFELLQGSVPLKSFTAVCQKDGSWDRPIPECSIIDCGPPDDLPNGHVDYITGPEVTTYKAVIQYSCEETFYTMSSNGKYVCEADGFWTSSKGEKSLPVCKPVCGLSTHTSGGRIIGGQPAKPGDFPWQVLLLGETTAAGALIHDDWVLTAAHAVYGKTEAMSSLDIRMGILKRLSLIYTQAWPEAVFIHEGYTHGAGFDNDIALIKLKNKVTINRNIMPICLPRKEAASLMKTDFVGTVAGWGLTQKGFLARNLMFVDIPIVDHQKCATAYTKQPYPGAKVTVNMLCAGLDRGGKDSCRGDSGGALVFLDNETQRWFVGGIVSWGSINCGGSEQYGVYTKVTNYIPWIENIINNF

B1: EVO22 (designed binder)
chain: KPDFCFLENDPGPCRALKRRYFYNNQTKQCERFYYGGCLGNMNNFVTLEECKNICEDG
modifications: not fully specified; cysteine pairing not given here
notes: Modified TFPI-D2 Kunitz domain; made as m1
[1]
  Ki: 0.15 nM
[2]
  Ki: 0.31 nM
[3]
  IC50, lectin pathway C4 deposition, rat serum: 9.9 nM
  Relative potency, lectin pathway, rat serum: 10.8 fold vs EVO2
[4]
  IC50, lectin pathway C4 deposition, human serum: 4.1 nM
  Relative potency, lectin pathway, human serum: 33.4 fold vs EVO2
[5]
  Kd: 0.137 nM
  Relative affinity: 13.1 fold vs EVO2
  koff: 0.000314 s⁻¹
  kon: 2.3e+06 M⁻¹ s⁻¹
[6]
  Kd: 0.229 nM
  Relative affinity: 15.9 fold vs EVO2
  koff: 0.000256 s⁻¹
  kon: 1.12e+06 M⁻¹ s⁻¹

B2: EVO22d (designed binder)
chain: B1 chain with N9E, L17A, L39F
[3]
  IC50, lectin pathway C4 deposition, rat serum: 10.4 nM
  Relative potency, lectin pathway, rat serum: 10.2 fold vs EVO2
[4]
  IC50, lectin pathway C4 deposition, human serum: 5.6 nM
  Relative potency, lectin pathway, human serum: 24.7 fold vs EVO2
[7]
  Relative potency (relative human lectin pathway inhibitory efficiency compared to EVO2): 24.6 fold relative to EVO2

B3: EVO211a (designed binder)
chain: B1 chain with N9E, P13W, Y34G, L39F
[3]
  IC50, lectin pathway C4 deposition, rat serum: 30.6 nM
  Relative potency, lectin pathway, rat serum: 3.5 fold vs EVO2
[4]
  IC50, lectin pathway C4 deposition, human serum: 9.1 nM
  Relative potency, lectin pathway, human serum: 15.2 fold vs EVO2
[7]
  Relative potency (relative human lectin pathway inhibitory efficiency compared to EVO2): 13.5 fold relative to EVO2

B4: EVO214a (designed binder)
chain: B1 chain with N9E, R19L, Y34G, L39F
[3]
  IC50, lectin pathway C4 deposition, rat serum: 20.3 nM
  Relative potency, lectin pathway, rat serum: 5.2 fold vs EVO2
[4]
  IC50, lectin pathway C4 deposition, human serum: 10.2 nM
  Relative potency, lectin pathway, human serum: 13.6 fold vs EVO2
[7]
  Relative potency (relative human lectin pathway inhibitory efficiency compared to EVO2): 15.2 fold relative to EVO2

B5: EVO2 (designed binder)
chain: B1 chain with N9E, L17V, Y34K, V46E
modifications: not fully specified; ends and bridges not checked
notes: Modified Kunitz domain TFPI-D2 of human TFPI-1; recombinant from E. coli, freed from a His6-S100A4 fusion by TEV protease; also called TFMI-2b
[1]
  Ki: 0.65 nM
[2]
  Ki: 0.24 nM
[3]
  IC50, lectin pathway C4 deposition, rat serum: 106 nM
  Relative potency, lectin pathway, rat serum: 1 fold vs EVO2
[4]
  IC50, lectin pathway C4 deposition, human serum: 138 nM
  Relative potency, lectin pathway, human serum: 1 fold vs EVO2
[5]
  Kd: 1.79 nM
  Relative affinity: 1 fold vs EVO2
  koff: 0.0014 s⁻¹
  kon: 809000 M⁻¹ s⁻¹
[6]
  Kd: 3.63 nM
  Relative affinity: 1 fold vs EVO2
  koff: 0.00107 s⁻¹
  kon: 310000 M⁻¹ s⁻¹

B6: EVO222 (designed binder)
chain: B1 chain with P13L, L17A, K18A, R19V
modifications: not fully specified; cysteine pairing not given here
notes: as for B1
[1]
  Ki: 0.1 nM
[2]
  Ki: 0.27 nM
[3]
  IC50, lectin pathway C4 deposition, rat serum: 24.2 nM
  Relative potency, lectin pathway, rat serum: 8.9 fold vs EVO2
[4]
  IC50, lectin pathway C4 deposition, human serum: 9.8 nM
  Relative potency, lectin pathway, human serum: 14.1 fold vs EVO2
[5]
  Relative affinity: 40 fold vs EVO2
  koff: 4.26e-05 s⁻¹
  kon: 954000 M⁻¹ s⁻¹
[6]
  Kd: 0.566 nM
  Relative affinity: 6.4 fold vs EVO2
  koff: 0.000262 s⁻¹
  kon: 463000 M⁻¹ s⁻¹

B7: EVO25 (designed binder)
chain: B1 chain with L39F, V46E
modifications: not fully specified; cysteine pairing not given here
notes: as for B1
[2]
  Ki: 0.9 nM
[3]
  IC50, lectin pathway C4 deposition, rat serum: 15 nM
  Relative potency, lectin pathway, rat serum: 7.1 fold vs EVO2
[4]
  IC50, lectin pathway C4 deposition, human serum: 5.6 nM
  Relative potency, lectin pathway, human serum: 24.5 fold vs EVO2
[5]
  Kd: 0.203 nM
  Relative affinity: 8.8 fold vs EVO2
  koff: 0.000438 s⁻¹
  kon: 2.16e+06 M⁻¹ s⁻¹
[6]
  Kd: 0.787 nM
  Relative affinity: 4.6 fold vs EVO2
  koff: 0.000826 s⁻¹
  kon: 1.05e+06 M⁻¹ s⁻¹

B8: EVO221 (designed binder)
chain: B1 chain with P13V, L17A, K18A, R19V
modifications: not fully specified; cysteine pairing not given here
notes: as for B1
[1]
  Ki: 0.19 nM
[2]
  Ki: 0.1 nM
[3]
  IC50, lectin pathway C4 deposition, rat serum: 11 nM
  Relative potency, lectin pathway, rat serum: 9.7 fold vs EVO2
[4]
  IC50, lectin pathway C4 deposition, human serum: 12.7 nM
  Relative potency, lectin pathway, human serum: 10.9 fold vs EVO2
[7]
  Relative potency (relative human lectin pathway inhibitory efficiency compared to EVO2): 10.8 fold relative to EVO2
[5]
  Kd: 0.127 nM
  Relative affinity: 14.1 fold vs EVO2
  koff: 0.000131 s⁻¹
  kon: 1.03e+06 M⁻¹ s⁻¹
[6]
  Kd: 0.17 nM
  Relative affinity: 21.4 fold vs EVO2
  koff: 0.000113 s⁻¹
  kon: 664000 M⁻¹ s⁻¹

B9: EVO223 (designed binder)
chain: B1 chain with L17A, K18A, R19V
notes: as for B1
[2]
  Ki: 0.09 nM
[3]
  IC50, lectin pathway C4 deposition, rat serum: 12 nM
  Relative potency, lectin pathway, rat serum: 8.9 fold vs EVO2
[4]
  IC50, lectin pathway C4 deposition, human serum: 9.9 nM
  Relative potency, lectin pathway, human serum: 14 fold vs EVO2
[5]
  Kd: 0.054 nM
  Relative affinity: 33.1 fold vs EVO2
  koff: 4.77e-05 s⁻¹
  kon: 882000 M⁻¹ s⁻¹
[6]
  Kd: 0.108 nM
  Relative affinity: 33.6 fold vs EVO2
  koff: 7.53e-05 s⁻¹
  kon: 696000 M⁻¹ s⁻¹

B10: EVO224 (designed binder)
chain: B1 chain with P13V, K18A, R19V
modifications: not fully specified; cysteine pairing not given here
notes: as for B1
[1]
  Ki: 1.13 nM
[2]
  Ki: 0.14 nM
[3]
  IC50, lectin pathway C4 deposition, rat serum: 29.6 nM
  Relative potency, lectin pathway, rat serum: 3.6 fold vs EVO2
[4]
  IC50, lectin pathway C4 deposition, human serum: 30.9 nM
  Relative potency, lectin pathway, human serum: 4.5 fold vs EVO2
[5]
  Kd: 0.561 nM
  Relative affinity: 3.2 fold vs EVO2
  koff: 0.000617 s⁻¹
  kon: 1.1e+06 M⁻¹ s⁻¹
[6]
  Kd: 0.219 nM
  Relative affinity: 16.6 fold vs EVO2
  koff: 0.000184 s⁻¹
  kon: 839000 M⁻¹ s⁻¹

B11: EVO21c (designed binder)
chain: B1 chain with N9E, Y34G, L39F
modifications: not fully specified; cysteine pairing not given here
notes: as for B1
[1]
  Ki: 0.065 nM
[2]
  Ki: 0.007 nM
[3]
  IC50, lectin pathway C4 deposition, rat serum: 12.4 nM
  Relative potency, lectin pathway, rat serum: 8.5 fold vs EVO2
[4]
  IC50, lectin pathway C4 deposition, human serum: 6.2 nM
  Relative potency, lectin pathway, human serum: 22.4 fold vs EVO2
[7]
  Relative potency (relative human lectin pathway inhibitory efficiency compared to EVO2): 22.3 fold relative to EVO2

B12: EVO21a (designed binder)
chain: B1 chain with L17V, Y34G
modifications: not fully specified; cysteine pairing not given here
notes: as for B1
[3]
  IC50, lectin pathway C4 deposition, rat serum: 39.4 nM
  Relative potency, lectin pathway, rat serum: 2.7 fold vs EVO2
[4]
  IC50, lectin pathway C4 deposition, human serum: 21.4 nM
  Relative potency, lectin pathway, human serum: 6.5 fold vs EVO2
[7]
  Relative potency (relative human lectin pathway inhibitory efficiency compared to EVO2): 6.4 fold relative to EVO2
[5]
  Kd: 0.723 nM
  Relative affinity: 2.5 fold vs EVO2
  koff: 0.000839 s⁻¹
  kon: 1.16e+06 M⁻¹ s⁻¹
[6]
  Kd: 2.02 nM
  Relative affinity: 1.8 fold vs EVO2
  koff: 0.00104 s⁻¹
  kon: 515000 M⁻¹ s⁻¹
